This assay addresses human Erk2 (extracellular signal-regulated kinase 2), purchased from Sigma (human), P28482. Kind of assay: ELISA, purified clone 500 ng/well on immobilised antigen, anti-FLAG-HRP detection. Background: An ELISA detects its analyte on a solid surface through an enzyme-linked reagent.

human Erk2 (extracellular signal-regulated kinase 2), purchased from Sigma (human), P28482, sequence (P28482 whole entry): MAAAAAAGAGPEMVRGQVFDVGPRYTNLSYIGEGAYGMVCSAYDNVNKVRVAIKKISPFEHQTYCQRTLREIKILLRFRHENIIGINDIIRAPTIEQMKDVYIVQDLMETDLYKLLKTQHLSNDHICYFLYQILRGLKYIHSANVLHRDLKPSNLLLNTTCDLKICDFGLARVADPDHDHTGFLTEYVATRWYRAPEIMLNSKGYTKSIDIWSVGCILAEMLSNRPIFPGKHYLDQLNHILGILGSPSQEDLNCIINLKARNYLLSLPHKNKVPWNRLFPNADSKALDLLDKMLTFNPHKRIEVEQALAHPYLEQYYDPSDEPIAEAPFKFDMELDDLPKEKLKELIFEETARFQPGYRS

B1: Erk2-binding clone group J (RNF8-FHA domain-modified protein) (designed binder, not shown: large carriers)
chain: GEPGFFVTGDRAGGRSWCLRRVGMSAGWLLLEDGCEVTVGFGTGVTYQLVSKYLPSWFTYNHCVLKQNPEGQWTIMDNKSLTGVWLNRARLEPLRVYSIHQGDYIQLGSLREXSENAEYEYEVTEEDWETIYPCLSPKNDQMIEKN
modifications: not fully specified; X: residue not identified in the source; also: N-terminal MBP-Strep/FLAG fusion partner, sequence not given here
For B1, the ELISA (S/N) amounted to 25.6 S/N.

The values are drawn from patent US20130143299A1.
